Residues, ends and D or L forms follow the SMILES beside them. *: point of attachment. Doxorubicin(3'-N) = COc1cccc2c1C(=O)c1c(O)c3c(c(O)c1C2=O)C[C@@](O)(C(=O)CO)C[C@@H]3O[C@H]1C[C@H](N*)[C@H](O)[C@H](C)O1; Hexanoyl(6-maleimido) = O=C1C=CC(=O)N1CCCCCC(=O)*; Butanoyl(4-maleimido) = O=C1C=CC(=O)N1CCCC(=O)*; Propanoyl(3-maleimido) = O=C1C=CC(=O)N1CCC(=O)*; PEG6 = NCCOCCOCCOCCOCCOCCOCCC(=O)O; PEG4 = NCCOCCOCCOCCOCCC(=O)O; PEG3 = NCCOCCOCCOCCC(=O)O; PEG2 = NCCOCCOCCC(=O)O
Experiment: Water solubility of freeze-dried compounds in water (observation and HPLC)

| Structure (SMILES) | solubility [µg/mL] |
| --- | --- |
| COc1cccc2c1C(=O)c1c(O)c3c(c(O)c1C2=O)C[C@@](O)(C(=O)CO)C[C@@H]3O[C@H]1C[C@H](NC(=O)[C@H](CC(C)C)NC(=O)[C@H](CC(N)=O)NC(=O)[C@H](C)NC(=O)[C@H](C)NC(=O)[C@H](CCC(=O)O)NC(=O)CCOCCOCCOCCOCCOCCOCCNC(=O)CCCN2C(=O)C=CC2=O)[C@H](O)[C@H](C)O1 [QHL-081] ({Butanoyl(4-maleimido)-PEG6}-EAANL-{Doxorubicin(3'-N)}) | > 30000 |
| COc1cccc2c1C(=O)c1c(O)c3c(c(O)c1C2=O)C[C@@](O)(C(=O)CO)C[C@@H]3O[C@H]1C[C@H](NC(=O)[C@H](CC(C)C)NC(=O)[C@H](CC(N)=O)NC(=O)[C@H](C)NC(=O)[C@H](C)NC(=O)[C@H](CC(=O)O)NC(=O)CCOCCOCCOCCOCCOCCOCCNC(=O)CCCN2C(=O)C=CC2=O)[C@H](O)[C@H](C)O1 [QHL-084] ({Butanoyl(4-maleimido)-PEG6}-DAANL-{Doxorubicin(3'-N)}) | > 30000 |
| COc1cccc2c1C(=O)c1c(O)c3c(c(O)c1C2=O)C[C@@](O)(C(=O)CO)C[C@@H]3O[C@H]1C[C@H](NC(=O)[C@H](CC(C)C)NC(=O)[C@H](CC(N)=O)NC(=O)[C@H](C)NC(=O)[C@H](C)NC(=O)CCOCCOCCOCCNC(=O)CCN2C(=O)C=CC2=O)[C@H](O)[C@H](C)O1 [QHL-090] ({Propanoyl(3-maleimido)-PEG3}-AANL-{Doxorubicin(3'-N)}) | > 10000 |
| COc1cccc2c1C(=O)c1c(O)c3c(c(O)c1C2=O)C[C@@](O)(C(=O)CO)C[C@@H]3O[C@H]1C[C@H](NC(=O)[C@H](CC(C)C)NC(=O)[C@H](CC(N)=O)NC(=O)[C@H](C)NC(=O)[C@H](C)NC(=O)CCOCCOCCNC(=O)CCCN2C(=O)C=CC2=O)[C@H](O)[C@H](C)O1 [QHL-099] ({Butanoyl(4-maleimido)-PEG2}-AANL-{Doxorubicin(3'-N)}) | > 20000 |
| COc1cccc2c1C(=O)c1c(O)c3c(c(O)c1C2=O)C[C@@](O)(C(=O)CO)C[C@@H]3O[C@H]1C[C@H](NC(=O)[C@H](CC(C)C)NC(=O)[C@H](CC(N)=O)NC(=O)[C@H](C)NC(=O)[C@H](C)NC(=O)CCOCCOCCOCCNC(=O)CCCN2C(=O)C=CC2=O)[C@H](O)[C@H](C)O1 [QHL-102] ({Butanoyl(4-maleimido)-PEG3}-AANL-{Doxorubicin(3'-N)}) | > 10000 |
| COc1cccc2c1C(=O)c1c(O)c3c(c(O)c1C2=O)C[C@@](O)(C(=O)CO)C[C@@H]3O[C@H]1C[C@H](NC(=O)[C@H](CC(C)C)NC(=O)[C@H](CC(N)=O)NC(=O)[C@H](C)NC(=O)[C@H](C)NC(=O)CCOCCOCCOCCOCCNC(=O)CCCN2C(=O)C=CC2=O)[C@H](O)[C@H](C)O1 [QHL-105] ({Butanoyl(4-maleimido)-PEG4}-AANL-{Doxorubicin(3'-N)}) | > 10000 |
| COc1cccc2c1C(=O)c1c(O)c3c(c(O)c1C2=O)C[C@@](O)(C(=O)CO)C[C@@H]3O[C@H]1C[C@H](NC(=O)[C@H](CC(C)C)NC(=O)[C@H](CC(N)=O)NC(=O)[C@H](C)NC(=O)[C@H](C)NC(=O)CCOCCOCCOCCOCCOCCOCCNC(=O)CCCN2C(=O)C=CC2=O)[C@H](O)[C@H](C)O1 [QHL-108] ({Butanoyl(4-maleimido)-PEG6}-AANL-{Doxorubicin(3'-N)}) | > 20000 |
| COc1cccc2c1C(=O)c1c(O)c3c(c(O)c1C2=O)C[C@@](O)(C(=O)CO)C[C@@H]3O[C@H]1C[C@H](NC(=O)[C@H](CC(C)C)NC(=O)[C@H](CC(N)=O)NC(=O)[C@H](C)NC(=O)[C@H](C)NC(=O)[C@H](CCC(=O)O)NC(=O)CCN2C(=O)C=CC2=O)[C@H](O)[C@H](C)O1 [QHL-111] ({Propanoyl(3-maleimido)}-EAANL-{Doxorubicin(3'-N)}) | > 10000 |
| COc1cccc2c1C(=O)c1c(O)c3c(c(O)c1C2=O)C[C@@](O)(C(=O)CO)C[C@@H]3O[C@H]1C[C@H](NC(=O)[C@H](CC(C)C)NC(=O)[C@H](CC(N)=O)NC(=O)[C@H](C)NC(=O)[C@H](C)NC(=O)[C@H](CC(=O)O)NC(=O)CCN2C(=O)C=CC2=O)[C@H](O)[C@H](C)O1 [QHL-114] ({Propanoyl(3-maleimido)}-DAANL-{Doxorubicin(3'-N)}) | > 15000 |
| COc1cccc2c1C(=O)c1c(O)c3c(c(O)c1C2=O)C[C@@](O)(C(=O)CO)C[C@@H]3O[C@H]1C[C@H](NC(=O)[C@H](CC(C)C)NC(=O)[C@H](CC(N)=O)NC(=O)[C@H](C)NC(=O)[C@H](C)NC(=O)CNC(=O)CCCCCN2C(=O)C=CC2=O)[C@H](O)[C@H](C)O1 [QHL-121] ({Hexanoyl(6-maleimido)}-GAANL-{Doxorubicin(3'-N)}) | > 10000 |
| COc1cccc2c1C(=O)c1c(O)c3c(c(O)c1C2=O)C[C@@](O)(C(=O)CO)C[C@@H]3O[C@H]1C[C@H](NC(=O)[C@H](CC(C)C)NC(=O)[C@H](CC(N)=O)NC(=O)[C@H](C)NC(=O)[C@H](C)NC(=O)[C@H](C)NC(=O)CCCCCN2C(=O)C=CC2=O)[C@H](O)[C@H](C)O1 [QHL-122] ({Hexanoyl(6-maleimido)}-AAANL-{Doxorubicin(3'-N)}) | > 10000 |
| COc1cccc2c1C(=O)c1c(O)c3c(c(O)c1C2=O)C[C@@](O)(C(=O)CO)C[C@@H]3O[C@H]1C[C@H](NC(=O)[C@H](CC(C)C)NC(=O)[C@H](CC(N)=O)NC(=O)[C@H](C)NC(=O)[C@H](C)NC(=O)[C@H](CC(C)C)NC(=O)CCCCCN2C(=O)C=CC2=O)[C@H](O)[C@H](C)O1 [QHL-124] ({Hexanoyl(6-maleimido)}-LAANL-{Doxorubicin(3'-N)}) | > 5000 |
| CC[C@H](C)[C@H](NC(=O)CCCCCN1C(=O)C=CC1=O)C(=O)N[C@@H](C)C(=O)N[C@@H](C)C(=O)N[C@@H](CC(N)=O)C(=O)N[C@@H](CC(C)C)C(=O)N[C@H]1C[C@H](O[C@H]2C[C@](O)(C(=O)CO)Cc3c(O)c4c(c(O)c32)C(=O)c2c(OC)cccc2C4=O)O[C@@H](C)[C@H]1O [QHL-125] ({Hexanoyl(6-maleimido)}-IAANL-{Doxorubicin(3'-N)}) | > 2000 |
| COc1cccc2c1C(=O)c1c(O)c3c(c(O)c1C2=O)C[C@@](O)(C(=O)CO)C[C@@H]3O[C@H]1C[C@H](NC(=O)[C@H](CC(C)C)NC(=O)[C@H](CC(N)=O)NC(=O)[C@H](C)NC(=O)[C@H](C)NC(=O)[C@H](CCSC)NC(=O)CCCCCN2C(=O)C=CC2=O)[C@H](O)[C@H](C)O1 [QHL-126] ({Hexanoyl(6-maleimido)}-MAANL-{Doxorubicin(3'-N)}) | > 2000 |
| COc1cccc2c1C(=O)c1c(O)c3c(c(O)c1C2=O)C[C@@](O)(C(=O)CO)C[C@@H]3O[C@H]1C[C@H](NC(=O)[C@H](CC(C)C)NC(=O)[C@H](CC(N)=O)NC(=O)[C@H](C)NC(=O)[C@H](C)NC(=O)[C@H](CO)NC(=O)CCCCCN2C(=O)C=CC2=O)[C@H](O)[C@H](C)O1 [QHL-129] ({Hexanoyl(6-maleimido)}-SAANL-{Doxorubicin(3'-N)}) | > 5000 |
| COc1cccc2c1C(=O)c1c(O)c3c(c(O)c1C2=O)C[C@@](O)(C(=O)CO)C[C@@H]3O[C@H]1C[C@H](NC(=O)[C@H](CC(C)C)NC(=O)[C@H](CC(N)=O)NC(=O)[C@H](C)NC(=O)[C@H](C)NC(=O)[C@@H](NC(=O)CCCCCN2C(=O)C=CC2=O)[C@@H](C)O)[C@H](O)[C@H](C)O1 [QHL-130] ({Hexanoyl(6-maleimido)}-TAANL-{Doxorubicin(3'-N)}) | > 2000 |
| COc1cccc2c1C(=O)c1c(O)c3c(c(O)c1C2=O)C[C@@](O)(C(=O)CO)C[C@@H]3O[C@H]1C[C@H](NC(=O)[C@H](CC(C)C)NC(=O)[C@H](CC(N)=O)NC(=O)[C@H](C)NC(=O)[C@H](C)NC(=O)[C@H](CS)NC(=O)CCCCCN2C(=O)C=CC2=O)[C@H](O)[C@H](C)O1 [QHL-131] ({Hexanoyl(6-maleimido)}-CAANL-{Doxorubicin(3'-N)}) | > 10000 |
| COc1cccc2c1C(=O)c1c(O)c3c(c(O)c1C2=O)C[C@@](O)(C(=O)CO)C[C@@H]3O[C@H]1C[C@H](NC(=O)[C@H](CC(C)C)NC(=O)[C@H](CC(N)=O)NC(=O)[C@H](C)NC(=O)[C@H](C)NC(=O)[C@H](Cc2ccc(O)cc2)NC(=O)CCCCCN2C(=O)C=CC2=O)[C@H](O)[C@H](C)O1 [QHL-132] ({Hexanoyl(6-maleimido)}-YAANL-{Doxorubicin(3'-N)}) | > 2000 |
| COc1cccc2c1C(=O)c1c(O)c3c(c(O)c1C2=O)C[C@@](O)(C(=O)CO)C[C@@H]3O[C@H]1C[C@H](NC(=O)[C@H](CC(C)C)NC(=O)[C@H](CC(N)=O)NC(=O)[C@H](C)NC(=O)[C@H](C)NC(=O)[C@H](CC(N)=O)NC(=O)CCCCCN2C(=O)C=CC2=O)[C@H](O)[C@H](C)O1 [QHL-133] ({Hexanoyl(6-maleimido)}-NAANL-{Doxorubicin(3'-N)}) | > 2000 |
| COc1cccc2c1C(=O)c1c(O)c3c(c(O)c1C2=O)C[C@@](O)(C(=O)CO)C[C@@H]3O[C@H]1C[C@H](NC(=O)[C@H](CC(C)C)NC(=O)[C@H](CC(N)=O)NC(=O)[C@H](C)NC(=O)[C@H](C)NC(=O)[C@H](CCC(N)=O)NC(=O)CCCCCN2C(=O)C=CC2=O)[C@H](O)[C@H](C)O1 [QHL-134] ({Hexanoyl(6-maleimido)}-QAANL-{Doxorubicin(3'-N)}) | > 5000 |
| COc1cccc2c1C(=O)c1c(O)c3c(c(O)c1C2=O)C[C@@](O)(C(=O)CO)C[C@@H]3O[C@H]1C[C@H](NC(=O)[C@H](CC(C)C)NC(=O)[C@H](CC(N)=O)NC(=O)[C@H](C)NC(=O)[C@H](C)NC(=O)[C@H](CCCCN)NC(=O)CCCCCN2C(=O)C=CC2=O)[C@H](O)[C@H](C)O1 [QHL-135] ({Hexanoyl(6-maleimido)}-KAANL-{Doxorubicin(3'-N)}) | > 5000 |
| COc1cccc2c1C(=O)c1c(O)c3c(c(O)c1C2=O)C[C@@](O)(C(=O)CO)C[C@@H]3O[C@H]1C[C@H](NC(=O)[C@H](CC(C)C)NC(=O)[C@H](CC(N)=O)NC(=O)[C@H](C)NC(=O)[C@H](C)NC(=O)[C@H](CCCNC(=N)N)NC(=O)CCCCCN2C(=O)C=CC2=O)[C@H](O)[C@H](C)O1 [QHL-136] ({Hexanoyl(6-maleimido)}-RAANL-{Doxorubicin(3'-N)}) | > 2000 |
| COc1cccc2c1C(=O)c1c(O)c3c(c(O)c1C2=O)C[C@@](O)(C(=O)CO)C[C@@H]3O[C@H]1C[C@H](NC(=O)[C@H](CC(C)C)NC(=O)[C@H](CC(N)=O)NC(=O)[C@H](C)NC(=O)[C@H](C)NC(=O)[C@H](Cc2c[nH]cn2)NC(=O)CCCCCN2C(=O)C=CC2=O)[C@H](O)[C@H](C)O1 [QHL-137] ({Hexanoyl(6-maleimido)}-HAANL-{Doxorubicin(3'-N)}) | > 5000 |
